From patent publication US20250152724A1, “ANTIBODY CONJUGATES SPECIFIC FOR MUCIN-1 AND METHODS OF USE THEREOF” (R.P. Scherer Technologies, LLC, priority 2022, published 2025)

How the values were obtained:
[1] = target: recombinant 60mer MUC1 non-glycosylated-biotin (Homo sapiens, UniProt P15941); assay: MUC1 ELISA; format: binding; settings: FIGS. 2A-2C
Method: (§1) MUC1 ELISA: Antigens were coated directly on a Streptavidin (Pierce, 15500) or Maxisorp (VWR, 62409-024) 96-well plate at 100 ng/well in PBS. Coated plates were incubated at 4° C. overnight. The plates were blocked with casein blocking buffer (Thermo Fisher, 37528) and washed with PBS-Tween-20. Antibodies were serially diluted in PBS, added to the coated wells and incubated for 1 h at room temperature with shaking. To test for stickiness, antibodies were also added to uncoated, blocked wells. Peroxidase (HRP)-conjugated anti-Fc secondary (Jackson Immunoresearch, #109-035-098) was used for detection, followed by a […] substrate (Thermo Fisher, 34028) and H2SO4 quench. Absorbance was read at 450 nm on a Molecular Devices plate reader.
(§2) 20mer MUC1 glycosylated-biotin refers to a peptide comprising the sequence […] (SEQ ID NO:26) with Tn (GalNac) antigen or sialyl Tn (Neu5Acα2-6GalNAc) antigen modifications on some of the S/T residues, where biotin in conjugated to the N-terminus. 60mer MUC1 non-glycosylated-biotin refers to a peptide comprising the sequence […] (SEQ ID NO:27), where biotin in conjugated to the N-terminus. Decoy peptide refers to a peptide comprising the sequence […] (SEQ ID NO:28), with Tn (GalNac) antigen or sialyl Tn (Neu5Acα2-6GalNAc) antigen modifications on some of the S/T residues.

[2] = target: recombinant 20mer MUC1 glycosylated-biotin (Homo sapiens, UniProt P15941); assay: MUC1 ELISA; format: binding; settings: FIGS. 2A-2C
Method: as §1, §2

decoy peptide = assay: MUC1 ELISA; format: binding; settings: FIGS. 2A-2C
Method: as §1, §2

[3] = analytical size exclusion chromatography (SEC) to determine aggregation; format: physicochemical; settings: unconjugated antibodies; mobile phase 300 mM NaCl, 25 mM sodium phosphate pH 6.8
Method: SEC HPLC: To determine aggregation, samples were analyzed using analytical size exclusion chromatography (SEC; Tosoh #08541) with a mobile phase of 300 mM NaCl, 25 mM sodium phosphate pH 6.8.
Methods. Antibodies (15 mg/mL) bearing one aldehyde tag were conjugated to linker-payloads at 1.1 mM, respectively. Reactions proceeded for 72 h at 37° C. in 20 mM sodium citrate, 50 mM NaCl pH 5.5 (20/50 buffer) containing 0.85-2.5% DMA. After conjugation, free drug was removed using a 30 kD MWCO 0.5 mL Amicon spin concentrator. Samples were added to the spin concentrator, centrifuged at 15,000×g for 7 min, then diluted with 450 μL 20 mM sodium citrate, 50 mM NaCl pH 5.5 and centrifuged again. The process was repeated 10 times. To determine the DAR of the final product, ADCs were examined by analytical chromatography using hydrophobic interaction (HIC) (Tosoh #14947) or PLRP-RP (Agilent PL1912-1802 1000A, 8 μm, 50×2.1 mm) columns. HIC analysis used mobile phase A: 1.5 M ammonium sulfate, 25 mM sodium phosphate pH 7.0, and mobile phase B: 25% isopropanol, 18.75 mM sodium phosphate pH 7.0. […] To determine aggregation, samples were analyzed using analytical size exclusion chromatography (SEC; Tosoh #08541) with a mobile phase of 300 mM NaCl, 25 mM sodium phosphate pH 6.8 with 5% isopropanol.

Sequence of recombinant 60mer MUC1 non-glycosylated-biotin (P15941 138-197): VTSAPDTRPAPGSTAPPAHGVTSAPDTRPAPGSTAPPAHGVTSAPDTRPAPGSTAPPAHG
Sequence of recombinant 20mer MUC1 glycosylated-biotin (P15941 138-157): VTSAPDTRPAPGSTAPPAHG
Sequence of decoy peptide (as listed by the source): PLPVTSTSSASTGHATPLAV

B1: MUC1 H02: anti-MUC1 monoclonal antibody; VH SEQ ID NO:1, VL SEQ ID NO:4 (antibody, V domains shown)
VH: EVQLVQSGAEVKKPGATVKISCKVSGYTFTDHTMHWIKQRPGKGLEWMGYFYPRDDSTNYNEKFKGRVTLTADKSTDTAYMELSSLRSEDTAVYYCARGLRYALDYWGQGTLVTVSS
VL: EIVLTQSPATLSLSPGERATLSCRASSSVSSSYLYWYQQKPGQAPRLWIIGTSNLASGVPARFSGSGSGTDYTLTISSLEPEDAAVYYCHQYSWSPPTFGQGTKLEIK
What does the source list for B1?
binding to recombinant 60mer MUC1 non-glycosylated-biotin as assessed by ELISA [1]: not; binding to recombinant 20mer MUC1 glycosylated-biotin as assessed by ELISA [2]: bind; binding to decoy peptide as assessed by ELISA (decoy peptide): not; monomeric as determined by SEC [3]: more than 98%

B2: MUC1 G12: anti-MUC1 monoclonal antibody; VH SEQ ID NO:1, VL SEQ ID NO:3 (antibody, V domains shown)
VH: EVQLVQSGAEVKKPGATVKISCKVSGYTFTDHTMHWIKQRPGKGLEWMGYFYPRDDSTNYNEKFKGRVTLTADKSTDTAYMELSSLRSEDTAVYYCARGLRYALDYWGQGTLVTVSS
VL: EIVLTQSPATLSLSPGERATLSCRASSSVGSSNLYWYQQKPGQAPRLWIYRSTKLASGVPARFSGSGSGTDYTLTISSLEPEDAAVYYCHQYRWSPPTFGQGTKLEIK
Which “binding to recombinant 60mer MUC1 non-glycosylated-biotin as assessed by ELISA” value [1] does the source give for B2 here?
Its value is “not”.

And the “binding to recombinant 20mer MUC1 glycosylated-biotin as assessed by ELISA” value [2]?
Its value is “bind”.

What about the “binding to decoy peptide as assessed by ELISA” value (decoy peptide) of the same molecule?
The value was “not”.

B3: MUC1 gB06: anti-MUC1 monoclonal antibody; VH SEQ ID NO:1, VL SEQ ID NO:2 (antibody, V domains shown)
VH: EVQLVQSGAEVKKPGATVKISCKVSGYTFTDHTMHWIKQRPGKGLEWMGYFYPRDDSTNYNEKFKGRVTLTADKSTDTAYMELSSLRSEDTAVYYCARGLRYALDYWGQGTLVTVSS
VL: EIVLTQSPATLSLSPGERATLSCRASSSVSSSYLYWYQQKPGQAPRLWIYGTSNLASGVPARFSGSGSGTDYTLTISSLEPEDAAVYYCHQYAWSPPTFGQGTKLEIK
What does the source list for B3?
binding to recombinant 60mer MUC1 non-glycosylated-biotin as assessed by ELISA [1]: not; binding to recombinant 20mer MUC1 glycosylated-biotin as assessed by ELISA [2]: bind; binding to decoy peptide as assessed by ELISA (decoy peptide): not
